Patent US20140087995A1 (published 2014)
Numbered stars: 1 amine (or outer) side, 2 acyl side, 3 side chain; on linkers, the order of the positions; unused ones are H or OH. Bridge positions count the residues as written; N and C are the ends. Side chains are listed from the residue outwards. Ends that are not written are not given here. * marks the point of attachment. C20 diacid = O=C(O)CCCCCCCCCCCCCCCCCCC(=O)*; γGlu = O=C(O)[C@H](CCC(=O)[*:2])N[*:1]; AEEA = NCCOCCOCC(=O)O

T1: human amylin 3(a) receptor (human calcitonin receptor co-expressed with RAMP-3) (human, UniProt P30988 25-474; O60896 24-148, limits assumed)
T1 sequence (looked up) 1: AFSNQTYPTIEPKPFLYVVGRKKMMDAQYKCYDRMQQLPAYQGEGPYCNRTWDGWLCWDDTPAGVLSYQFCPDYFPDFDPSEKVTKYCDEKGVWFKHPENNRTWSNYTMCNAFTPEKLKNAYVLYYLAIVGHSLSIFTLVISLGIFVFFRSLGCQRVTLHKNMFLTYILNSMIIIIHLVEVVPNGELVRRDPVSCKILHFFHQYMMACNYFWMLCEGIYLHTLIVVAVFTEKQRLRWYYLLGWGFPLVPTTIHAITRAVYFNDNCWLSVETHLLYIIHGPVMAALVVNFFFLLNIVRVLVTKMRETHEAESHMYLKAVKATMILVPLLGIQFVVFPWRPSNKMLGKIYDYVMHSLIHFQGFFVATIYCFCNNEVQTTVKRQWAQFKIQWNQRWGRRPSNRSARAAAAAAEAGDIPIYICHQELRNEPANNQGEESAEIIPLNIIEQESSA
T1 sequence (looked up) 2: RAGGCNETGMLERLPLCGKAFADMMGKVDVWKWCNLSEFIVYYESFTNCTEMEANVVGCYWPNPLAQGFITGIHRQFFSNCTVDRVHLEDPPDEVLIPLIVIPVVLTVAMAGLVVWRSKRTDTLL


Each binder was assayed against T1, human amylin 3(a) receptor (human …) (assay: cell-based or functional assay).

Binder | Ratio hCT/hAmylin funct. (hCTR EC50 over hAmylin-R EC50) | hAmylin-R funct. EC50 (pM)
K([γGlu-C20 diacid])CNTATCATQRLARFLRHSSPNFGAIPSSTNVGPNTY-NH2 (disulfide 2-7; N-terminus assumed; SMILES CC[C@H](C)[C@H](NC(=O)[C@H](C)NC(=O)CNC(=O)[C@H](Cc1ccccc1)NC(=O)[C@H](CC(N)=O)NC(=O)[C@@H]1CCCN1C(=O)[C@H](CO)NC(=O)[C@H](CO)NC(=O)[C@H](Cc1c[nH]cn1)NC(=O)[C@H](CCCNC(=N)N)NC(=O)[C@H](CC(C)C)NC(=O)[C@H](Cc1ccccc1)NC(=O)[C@H](CCCNC(=N)N)NC(=O)[C@H](C)NC(=O)[C@H](CC(C)C)NC(=O)[C@H](CCCNC(=N)N)NC(=O)[C@H](CCC(N)=O)NC(=O)[C@@H](NC(=O)[C@H](C)NC(=O)[C@@H]1CSSC[C@H](NC(=O)[C@@H](N)CCCCNC(=O)CC[C@H](NC(=O)CCCCCCCCCCCCCCCCCCC(=O)O)C(=O)O)C(=O)N[C@@H](CC(N)=O)C(=O)N[C@@H]([C@@H](C)O)C(=O)N[C@@H](C)C(=O)N[C@@H]([C@@H](C)O)C(=O)N1)[C@@H](C)O)C(=O)N1CCC[C@H]1C(=O)N[C@@H](CO)C(=O)N[C@@H](CO)C(=O)N[C@H](C(=O)N[C@@H](CC(N)=O)C(=O)N[C@H](C(=O)NCC(=O)N1CCC[C@H]1C(=O)N[C@@H](CC(N)=O)C(=O)N[C@H](C(=O)N[C@@H](Cc1ccc(O)cc1)C(N)=O)[C@@H](C)O)C(C)C)[C@@H](C)O, also called compound 65) | 38.6 | 242 pM
K([AEEA-γGlu-C20 diacid])CNTATCATQRLATFLRHSSPNFGAIPSSTPVGSNTY-NH2 (disulfide 2-7; N-terminus assumed; SMILES CC[C@H](C)[C@H](NC(=O)[C@H](C)NC(=O)CNC(=O)[C@H](Cc1ccccc1)NC(=O)[C@H](CC(N)=O)NC(=O)[C@@H]1CCCN1C(=O)[C@H](CO)NC(=O)[C@H](CO)NC(=O)[C@H](Cc1c[nH]cn1)NC(=O)[C@H](CCCNC(=N)N)NC(=O)[C@H](CC(C)C)NC(=O)[C@H](Cc1ccccc1)NC(=O)[C@@H](NC(=O)[C@H](C)NC(=O)[C@H](CC(C)C)NC(=O)[C@H](CCCNC(=N)N)NC(=O)[C@H](CCC(N)=O)NC(=O)[C@@H](NC(=O)[C@H](C)NC(=O)[C@@H]1CSSC[C@H](NC(=O)[C@@H](N)CCCCNC(=O)COCCOCCNC(=O)CC[C@H](NC(=O)CCCCCCCCCCCCCCCCCCC(=O)O)C(=O)O)C(=O)N[C@@H](CC(N)=O)C(=O)N[C@@H]([C@@H](C)O)C(=O)N[C@@H](C)C(=O)N[C@@H]([C@@H](C)O)C(=O)N1)[C@@H](C)O)[C@@H](C)O)C(=O)N1CCC[C@H]1C(=O)N[C@@H](CO)C(=O)N[C@@H](CO)C(=O)N[C@H](C(=O)N1CCC[C@H]1C(=O)N[C@H](C(=O)NCC(=O)N[C@@H](CO)C(=O)N[C@@H](CC(N)=O)C(=O)N[C@H](C(=O)N[C@@H](Cc1ccc(O)cc1)C(N)=O)[C@@H](C)O)C(C)C)[C@@H](C)O, also called compound 75) | 30.6 | 296 pM
K([AEEA-γGlu-C20 diacid])CNTATCATQRLAHFLRHSSPNFGAIPSSTNVGPNTY-NH2 (disulfide 2-7; N-terminus assumed; SMILES CC[C@H](C)[C@H](NC(=O)[C@H](C)NC(=O)CNC(=O)[C@H](Cc1ccccc1)NC(=O)[C@H](CC(N)=O)NC(=O)[C@@H]1CCCN1C(=O)[C@H](CO)NC(=O)[C@H](CO)NC(=O)[C@H](Cc1c[nH]cn1)NC(=O)[C@H](CCCNC(=N)N)NC(=O)[C@H](CC(C)C)NC(=O)[C@H](Cc1ccccc1)NC(=O)[C@H](Cc1c[nH]cn1)NC(=O)[C@H](C)NC(=O)[C@H](CC(C)C)NC(=O)[C@H](CCCNC(=N)N)NC(=O)[C@H](CCC(N)=O)NC(=O)[C@@H](NC(=O)[C@H](C)NC(=O)[C@@H]1CSSC[C@H](NC(=O)[C@@H](N)CCCCNC(=O)COCCOCCNC(=O)CC[C@H](NC(=O)CCCCCCCCCCCCCCCCCCC(=O)O)C(=O)O)C(=O)N[C@@H](CC(N)=O)C(=O)N[C@@H]([C@@H](C)O)C(=O)N[C@@H](C)C(=O)N[C@@H]([C@@H](C)O)C(=O)N1)[C@@H](C)O)C(=O)N1CCC[C@H]1C(=O)N[C@@H](CO)C(=O)N[C@@H](CO)C(=O)N[C@H](C(=O)N[C@@H](CC(N)=O)C(=O)N[C@H](C(=O)NCC(=O)N1CCC[C@H]1C(=O)N[C@@H](CC(N)=O)C(=O)N[C@H](C(=O)N[C@@H](Cc1ccc(O)cc1)C(N)=O)[C@@H](C)O)C(C)C)[C@@H](C)O, also called compound 68) | 17.4 | 54 pM

Now from value to binder:

Ratio hCT/hAmylin funct. (hCTR EC50 over hAmylin-R EC50) | hAmylin-R funct. EC50 (pM) | Binder
32.5 | 169 pM | K([AEEA-γGlu-C20 diacid])CNTATCATQRLAHFLRHSSPNFGAIPSSTNVGRNTY-NH2 (disulfide 2-7; N-terminus assumed; SMILES CC[C@H](C)[C@H](NC(=O)[C@H](C)NC(=O)CNC(=O)[C@H](Cc1ccccc1)NC(=O)[C@H](CC(N)=O)NC(=O)[C@@H]1CCCN1C(=O)[C@H](CO)NC(=O)[C@H](CO)NC(=O)[C@H](Cc1c[nH]cn1)NC(=O)[C@H](CCCNC(=N)N)NC(=O)[C@H](CC(C)C)NC(=O)[C@H](Cc1ccccc1)NC(=O)[C@H](Cc1c[nH]cn1)NC(=O)[C@H](C)NC(=O)[C@H](CC(C)C)NC(=O)[C@H](CCCNC(=N)N)NC(=O)[C@H](CCC(N)=O)NC(=O)[C@@H](NC(=O)[C@H](C)NC(=O)[C@@H]1CSSC[C@H](NC(=O)[C@@H](N)CCCCNC(=O)COCCOCCNC(=O)CC[C@H](NC(=O)CCCCCCCCCCCCCCCCCCC(=O)O)C(=O)O)C(=O)N[C@@H](CC(N)=O)C(=O)N[C@@H]([C@@H](C)O)C(=O)N[C@@H](C)C(=O)N[C@@H]([C@@H](C)O)C(=O)N1)[C@@H](C)O)C(=O)N1CCC[C@H]1C(=O)N[C@@H](CO)C(=O)N[C@@H](CO)C(=O)N[C@H](C(=O)N[C@@H](CC(N)=O)C(=O)N[C@H](C(=O)NCC(=O)N[C@@H](CCCNC(=N)N)C(=O)N[C@@H](CC(N)=O)C(=O)N[C@H](C(=O)N[C@@H](Cc1ccc(O)cc1)C(N)=O)[C@@H](C)O)C(C)C)[C@@H](C)O, also called compound 84)
56.3 | 666 pM | K([AEEA-γGlu-C20 diacid])CNTATCATQRLAKFLRHSSPNFGAIPSSTPVGSNTY-NH2 (disulfide 2-7; N-terminus assumed; SMILES CC[C@H](C)[C@H](NC(=O)[C@H](C)NC(=O)CNC(=O)[C@H](Cc1ccccc1)NC(=O)[C@H](CC(N)=O)NC(=O)[C@@H]1CCCN1C(=O)[C@H](CO)NC(=O)[C@H](CO)NC(=O)[C@H](Cc1c[nH]cn1)NC(=O)[C@H](CCCNC(=N)N)NC(=O)[C@H](CC(C)C)NC(=O)[C@H](Cc1ccccc1)NC(=O)[C@H](CCCCN)NC(=O)[C@H](C)NC(=O)[C@H](CC(C)C)NC(=O)[C@H](CCCNC(=N)N)NC(=O)[C@H](CCC(N)=O)NC(=O)[C@@H](NC(=O)[C@H](C)NC(=O)[C@@H]1CSSC[C@H](NC(=O)[C@@H](N)CCCCNC(=O)COCCOCCNC(=O)CC[C@H](NC(=O)CCCCCCCCCCCCCCCCCCC(=O)O)C(=O)O)C(=O)N[C@@H](CC(N)=O)C(=O)N[C@@H]([C@@H](C)O)C(=O)N[C@@H](C)C(=O)N[C@@H]([C@@H](C)O)C(=O)N1)[C@@H](C)O)C(=O)N1CCC[C@H]1C(=O)N[C@@H](CO)C(=O)N[C@@H](CO)C(=O)N[C@H](C(=O)N1CCC[C@H]1C(=O)N[C@H](C(=O)NCC(=O)N[C@@H](CO)C(=O)N[C@@H](CC(N)=O)C(=O)N[C@H](C(=O)N[C@@H](Cc1ccc(O)cc1)C(N)=O)[C@@H](C)O)C(C)C)[C@@H](C)O, also called compound 74)
139 | 37 pM | K([γGlu-C20 diacid])CNTATCATQRLARFLRHSSPNFGAIPSSTPVGSNTY-NH2 (disulfide 2-7; N-terminus assumed; SMILES CC[C@H](C)[C@H](NC(=O)[C@H](C)NC(=O)CNC(=O)[C@H](Cc1ccccc1)NC(=O)[C@H](CC(N)=O)NC(=O)[C@@H]1CCCN1C(=O)[C@H](CO)NC(=O)[C@H](CO)NC(=O)[C@H](Cc1c[nH]cn1)NC(=O)[C@H](CCCNC(=N)N)NC(=O)[C@H](CC(C)C)NC(=O)[C@H](Cc1ccccc1)NC(=O)[C@H](CCCNC(=N)N)NC(=O)[C@H](C)NC(=O)[C@H](CC(C)C)NC(=O)[C@H](CCCNC(=N)N)NC(=O)[C@H](CCC(N)=O)NC(=O)[C@@H](NC(=O)[C@H](C)NC(=O)[C@@H]1CSSC[C@H](NC(=O)[C@@H](N)CCCCNC(=O)CC[C@H](NC(=O)CCCCCCCCCCCCCCCCCCC(=O)O)C(=O)O)C(=O)N[C@@H](CC(N)=O)C(=O)N[C@@H]([C@@H](C)O)C(=O)N[C@@H](C)C(=O)N[C@@H]([C@@H](C)O)C(=O)N1)[C@@H](C)O)C(=O)N1CCC[C@H]1C(=O)N[C@@H](CO)C(=O)N[C@@H](CO)C(=O)N[C@H](C(=O)N1CCC[C@H]1C(=O)N[C@H](C(=O)NCC(=O)N[C@@H](CO)C(=O)N[C@@H](CC(N)=O)C(=O)N[C@H](C(=O)N[C@@H](Cc1ccc(O)cc1)C(N)=O)[C@@H](C)O)C(C)C)[C@@H](C)O, also called compound 63)
